Tests used:
[1] = cited from earlier work
C57Ks/J db/db male mice = assay: Fatty liver of db/db mice, Oil-Red O staining for neutral lipid; type: in vivo; conditions: 10-week-old db/db male mice; Avandia 3 or 10 mg/kg/day oral gavage for 13 days, ± Axokine 0.1 or 0.3 mg/kg/day in the last 8 days
Description: The effects of Avandia™ administration ±Axokine™ (SEQ ID NO:1) on fatty liver of db/db mice was examined. 10-week-old C57Ks/J db/db male mice were treated for 13 days with either vehicle or Avandia™ alone (3 or 10 mg/kg/day) by oral gavage or ±Axokine™ (0.1 or 0.3 mg/kg/day) in the last 8 days. 24 hours after the last administration (day 14) all animals were anesthetized , the liver removed and rapidly frozen until it could be processed. The tissues were sectioned, mounted on glass, and stained with Oil-Red O for the detection of neutral lipid.

C57BL/KsJ db/db mice = assay: Body weight and food intake of db/db mice under daily treatment; type: in vivo
Description: FIG. 1 is a graph of the effect of co-administration of Axokine™ (SEQ ID NO:1) (0.1 or 0.3 mg/kg s.c.), Avandia™ (3 or 10 mg/kg/day oral gavage) , or vehicle for 12 days on body weight in C57BL/KsJ db/db mice (% change from the first day of treatment). At day 5 (arrow), two combined treatment groups were initiated receiving Avandia™ (3 mg/kg/day, oral gavage)+Axokine™ (0.1 or 0.3 mg/kg s.c.). All data represents the mean (n≧6)±SEM.
C57BL/KsJ db/db mice were treated by daily administration of Axokine™ (SEQ ID NO:1) (0.1 or 0.3 mg/kg s.c.), Avandia™ (3 or 10 mg/kg/day oral gavage), and vehicle (vehicle) for […], and the effect on body weight determined (FIG. 1, shown as the % change from the first day of treatment). […] A combined treatment group consisted of Avandia™ (3 mg/kg/day, oral gavage) +Axokine™ (0.1 or 0.3 mg/kg s.c.) administered for the […] (arrow, FIG. 1). All data represents the mean (n>6)±SEM.

[2] = previously found by the applicant; cited from earlier work
[3] = daily injection 0.1 or 0.3 mg/kg s.c.

CN(CCOc1ccc(CC2SC(=O)NC2=O)cc1)c1ccccn1 (stereo not shown) [Avandia™, rosiglitazone]
body weight ([1]; Chaput et al. (2000)): increased body weight

Cc1c(C)c2c(c(C)c1O)CCC(C)(COc1ccc(CC3SC(=O)NC3=O)cc1)O2 (stereo not shown) [troglitazone]
hepatic reaction ([1]; patients, Lebovitz et al. (2002)): idiosyncratic hepatic reaction leading to hepatic failure and death in some patients

B1: Axokine™: modified CNTF molecule (SEQ ID NO:1) with improved physical and chemical properties, which activates the CNTF receptor (protein)
chain: MAFTEHSPLTPHRRDLASRSIWLARKIRSDLTALTESYVKHQGLNKNINLDSADGMPVASTDRWSELTEAERLQENLQAYRTFHVLLARLLEDQQVHFTPTEGDFHQAIHTLLLQVAAFAYQIEELMILLEYKIPRNEADGMPINVGDGGLFEKKLWGLKVLQELSQWTVRSIHDLRFISSHQTG
deposition of neutral lipid in liver (Oil-Red O staining) (C57Ks/J db/db male mice): reduced staining with Oil Red O
body weight (C57BL/KsJ db/db mice; [3]): caused weight loss
food intake (C57BL/KsJ db/db mice; [3]): decreased food intake
body weight with increasing doses, versus vehicle control groups (C57BL/KsJ db/db mice; increasing doses, ANOVA, P<0.0001 in all cases): further reduction in body weight
effect on food intake and body weight, blood glucose and tolerance, and serum insulin levels [2]: profound effect

— patent US20040033954A1, “Therapeutic method for combined use of modified CNTF and thiadolidinedione” (priority 2002, published 2004)
